Laboratory results taken from patent US20240117018A1.

Assays:
Test in all cases: cell-based or functional assay
[1] = biological target: HIV-1 Env of pseudovirus Q259.d2.17 (HIV-1)
[2] = biological target: HIV-1 Env of pseudovirus QH0692.42 (HIV-1)
[3] = biological target: HIV-1 Env of pseudovirus Ce1086_B2 (HIV-1)
[4] = biological target: HIV-1 Env of pseudovirus TRO.11 (HIV-1)
[5] = biological target: HIV-1 Env of pseudovirus Du172.17 (HIV-1)
[6] = biological target: HIV-1 Env of pseudovirus HIV-0013095-2.11 (HIV-1)
[7] = biological target: HIV-1 Env of pseudovirus ZM53M.PB12 (HIV-1)
[8] = biological target: HIV-1 Env of pseudovirus ZM233M.PB6 (HIV-1)
[9] = biological target: HIV-1 Env of pseudovirus 3365.v2.c2 (HIV-1)
[10] = biological target: HIV-1 Env of pseudovirus 191084 B7-19 (HIV-1)
[11] = biological target: HIV-1 Env of pseudovirus Ce2060_G9 (HIV-1)
[12] = biological target: HIV-1 Env of pseudovirus PVO.4 (HIV-1)
[13] = biological target: HIV-1 Env of pseudovirus THRO4156.18 (HIV-1)
[14] = biological target: HIV-1 Env of pseudovirus CAP210.2.00.E8 (HIV-1)
[15] = biological target: HIV-1 Env of pseudovirus ZM109F.PB4 (HIV-1)
[16] = biological target: HIV-1 Env of pseudovirus CNE17 (HIV-1)
[17] = biological target: HIV-1 Env of pseudovirus WITO4160.33 (HIV-1)
[18] = biological target: HIV-1 Env of pseudovirus MS208.A1 (HIV-1)
[19] = biological target: HIV-1 Env of pseudovirus WEAU_d15_410_787 (HIV-1)
[20] = biological target: HIV-1 Env of pseudovirus ZM247v1(Rev-) (HIV-1)
[21] = biological target: HIV-1 Env of pseudovirus CNE52 (HIV-1)
[22] = biological target: HIV-1 Env of pseudovirus 249M B10 (HIV-1)
[23] = biological target: HIV-1 Env of pseudovirus Ce2010_F5 (HIV-1)
[24] = biological target: HIV-1 Env of pseudovirus ZM135M.PL10a (HIV-1)
[25] = biological target: HIV-1 Env of pseudovirus AC10.0.29 (HIV-1)
[26] = biological target: HIV-1 Env of pseudovirus ZM214M.PL15 (HIV-1)
[27] = biological target: HIV-1 Env of pseudovirus CNE53 (HIV-1)

8ANC195 (antibody)
IC50 [1]: > 50 µg/mL
IC80 [1]: > 50 µg/mL
IC50 [2]: 2.71 µg/mL
IC80 [2]: 17.1 µg/mL
IC50 [3]: 4.42 µg/mL
IC80 [3]: 19.1 µg/mL
IC50 [4]: 0.18 µg/mL
IC80 [4]: 0.89 µg/mL
IC50 [5]: > 30 µg/mL
IC80 [5]: > 30 µg/mL
IC50 [6]: 0.32 µg/mL
IC80 [6]: 1.85 µg/mL
IC50 [7]: > 30 µg/mL
IC80 [7]: > 30 µg/mL
IC50 [8]: 7.39 µg/mL
IC80 [8]: 43.5 µg/mL
IC50 [9]: > 30 µg/mL
IC80 [9]: > 30 µg/mL
IC50 [10]: > 50 µg/mL
IC80 [10]: > 50 µg/mL
IC50 [11]: 6.2 µg/mL
IC80 [11]: > 50 µg/mL
IC50 [12]: 0.52 µg/mL
IC80 [12]: 1.87 µg/mL
IC50 [13]: > 50 µg/mL
IC80 [13]: > 50 µg/mL
IC50 [14]: > 50 µg/mL
IC80 [14]: > 50 µg/mL
IC50 [15]: > 30 µg/mL
IC80 [15]: > 30 µg/mL
IC50 [16]: 2.59 µg/mL
IC80 [16]: 11.1 µg/mL
IC50 [17]: > 50 µg/mL
IC80 [17]: > 50 µg/mL
IC50 [18]: > 50 µg/mL
IC80 [18]: > 50 µg/mL
IC50 [19]: > 50 µg/mL
IC80 [19]: > 50 µg/mL
IC50 [20]: 3.41 µg/mL
IC80 [20]: 25.1 µg/mL
IC50 [21]: 5.59 µg/mL
IC80 [21]: 43.1 µg/mL
IC50 [22]: > 50 µg/mL
IC80 [22]: > 50 µg/mL
IC50 [23]: > 50 µg/mL
IC80 [23]: > 50 µg/mL
IC50 [24]: > 50 µg/mL
IC80 [24]: > 50 µg/mL
IC50 [25]: 0.88 µg/mL
IC80 [25]: 7 µg/mL
IC50 [26]: 0.91 µg/mL
IC80 [26]: 12.3 µg/mL
IC50 [27]: > 50 µg/mL
IC80 [27]: > 50 µg/mL
